# Assay: yeast display, Sf9 membrane polyspecificity reagent, FACS + sequencing; frameworks hold sequencing errors
# Method in brief: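 Polyreactivity labels are assigned by the sorting gate from which each nanobody was recovered. The gates were low and high (top ~1%), set on anti-HA fluorescence for expression and streptavidin fluorescence for reagent binding. Before sorting, galactose-induced (36–48 hours) yeast display cells were stained for 1 hour at 4 °C with 10% biotinylated, detergent-solubilized Sf9 membrane reagent.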
row,Sequence,polyreactivity (PSR sort gate)
1,QVQLVESGGGLVKAGGSLRLSCAASGRIFNWYVMGWSRQAPGKERELVAAISWGSGNTYYADSVKGRFTISRDNAKNTVYLQMNSLKPEDTAVYYCNKVRSYRSWRGKYDYWGQGTQVTVSS,high polyreactivity
2,QVQLVESGGGLVQAGGSLRLSCAASGSIFYGYAMGWYRQAPGKERELVATITSGDSTNYADSVKGRFTISRDNAKNTVYLQMNSLKPEDTAVYYCAADPAHYVFWYGRYGYDYWGQGTQVTVSS,low polyreactivity
3,QVQLGESGGGLVQAGGSLRLSCAASGFIFPGYAMGLYRQAPGKERELVAAITGSGGSTYYADSVKGRFTISRDNAKYTVYVQMNSVKTEDTAVDYCGAYVSGYLWGYDYWGHGTQVTVSS,high polyreactivity
4,QVQLVESGGGLVQAGGSLRLSCAASGIIFRRYAMGWYRQAPGKERELVATITWSGGSTYYADSVKGRFTISRDNAKNTVYLQMNSLKPEDTAVYYCAKRGSRLYRLDYWGQGTQVTVSS,high polyreactivity
5,QVQLVESGGGLVQAGGSLRLSCAASGITFWDYAMGRYRQAPGKERELVAGISTRGGSTYYADSVKGRFTISRDNAKNTVYLQMNSLKPEDTAVYYCAADAQTSFGLGWGSDYDYWGQGTQVTVSS,low polyreactivity
6,QVQLVESGGGLVQAGGSLRLSCAASGSTFRFYAMGWYRPAPGKERELVAVIRSTGSTYYADSVKGRFTISRDNAKNTVYLQMNSLKPEDTAVYYCAAQNAWWSNGRSYDYWGQGTQVTVSS,low polyreactivity
7,QVQLVDSGGGLVQAGGSLRLSCAASGRTFWYYTMGWYRQAPGKEREFVAAIRGSGTSTYYADSVKARFTISRDNEKNTVYLQMNSLKPEDTAVYYCAAESPVYHLVTYDYWGQGTQVTVSS,high polyreactivity
8,QVQLVESGGGLVQAGGSLRLSCAASGFTFIKYAMGWYRQAPGKEREFVATISWNGGNTYYADSVKGRFTISRDNAKNTVYLQMNSLKPEDTAVYYCAARVKYRTRGGTVVSYDYWGQGTQVTVSS,high polyreactivity
9,QVQLVESGGGLVQAGGSLRLSCAASGFTFRWYAMGWYRQAPGKERELVAAITSDDNTYYADSVKGRFTISRDNAKNTVYLQMNSLKPEDTAVYYCAAEYADYWTYNMGYWGQGTQVTVSS,low polyreactivity
10,PVQLVESGGGLVQAGGSLRLSCAASGSIFAVNALGWSRQAPGKERELVAAITSGGNTYYADSVKGRFTISRDNAKNTVYLQMNSLKPEDTAVYDCATVFSVQGWYFGMNYWGQGTQVTVSS,low polyreactivity
11,QVQLVESGGGLVQAGGSLRLSCAASGLTFSPYAMGWYRQAPGKERELVATITIGGSTKYADSVKGRFTISRDNAKNTVYLQMNSLKPEDPAVYYCAVRSGYVTRRYDYWGQGTQVTVSS,low polyreactivity
12,QVQLVESGGGLVQEGASLRLSCAASGSIVGYYAMGWYRQAHGKERELVAAITRYGGRTYYADSVKGRFTISRDNGKNTVYLQMNSLKPEDTAVYYCNAANSRYAYYYWGQGTQVTVSS,high polyreactivity
13,QVQLVESGGGLVQAGGSHRLSCAASGRIFSTYAMGWYRQAPGKERELVAAINKIGGSTYYADSVKGRFTISRDNAKNNVYLQMNSLKPEDTAVDYCAADAPHYPVRRYYYWGQGTQVTVSS,low polyreactivity
14,QVQLVESGGGLVQAGGSLRLSCAASGSIIPPNAMGWYRQAPGKERELVAGISSGGSTTYADSVKGRFTISRDNAKNTVYLQMNSLKPEDTAVYYCAADVPYGASIISYDYWGQGTQVTVSS,low polyreactivity
15,QVQLVESGGGLVQAGGSLRLSCAASGRIFVRYTMGWYRQAPGKERELVAAINSGGRTYYADSVKGRFTISRDNAKNTVYLQMNSLKPEDTAVYYCAADRVYYGQRDYWGQGTQVTVSS,high polyreactivity
16,QVQLVESGGGLVQAGGSLRLICAASGITLWTYAMGWYRQAPGKERELVAAIRRGGSTYYADSVKGRFTISRDNAKYTVFLQMNSLKPEDTAVYYCNTVSFYPYYYWGQGTQVTVSS,high polyreactivity
17,QVKLVESAGGLVQAGGSLRLSCAASGSIFPYNVMGWYRQAPGKERELVAAITRRGGSTYYADSVKGRFTISRDNAKNTVYLQMNSLKPEDSAVYYCAAVPYPRGIGYDYWGQGTQVTVSS,high polyreactivity
18,QVQLVESGGGVVQAGGSLRLSCAASGSTFYINTMGWSRPAPGKDRELVAAISWTGGRTYYAASVKGRFTISRANAKNTVYLQMNSLKPEDTAVYYCAAYYNIPDRRRVGYDYWGQGTQVTVSS,high polyreactivity
19,QVQLVESGGGLVQAGGSLRLSCAASGSTFRFNAMGWYRQAPGKERELVAAITGIGGITYYADSVKGRFTISRDNAKNTVYLQMNSLKPEDTAVYYCNAVAARYSVRNGYSTHYDYWGQGTQVTVSS,high polyreactivity
20,QVHLVESGGGLVQSGGSLRLSCAASGTIFEANVKGWYRQAPGKERELVATISSDGTSTYYADSVKGRFTISRDNAKYTVYLQMNSRKPEDTAVYYCNADAGAGWYPDSKYAYDYWGQGTLVTVSS,low polyreactivity
21,QVQLVESGGGLVQAGGSLRLSCAASGRIFDYYAMGWYRQAPGKERELVAAITRGGSTYYADSVKGRFTISRDNAKNTVYLQLNSLNPVDTEVYYCAASIGIRFIKYDYWGQGAQVTVSS,high polyreactivity

row,Sequence,polyreactivity (PSR sort gate)
1,QVQLVESGGGLLQAGGSLRFSWAASGFIFIINPMGWYRQAPGKERELVAGIRWSGGYKYYADSVKGRFTISRDNEKNTVYLQINSLKPEDTAVYYCNKDRGSLTLYTYDYWGQVTQVTVSS,low polyreactivity
2,QVQLVESGGGLVQAGGSLRLSCAASGLIFYGNAMGWYRQAPWKERELVAAITGGGGNTYYADSVKGRFTISRDNAKITFFLQMISLKPEDTAVYYCASASSTAYVRYYYWGQGTQVTVSS,high polyreactivity
3,QVQLVESGGGLLQAGGSLSLSCAASGGIFYYNAMGRYRQAPRKERELVAANTFSGGSTNYADSVKGRFTISRDNAKNTVYLQMNSLKPEDTAVYYGNARRGYGGGYDYWGQGTQVTVSS,high polyreactivity
4,QVQLVESGGGLVQAGGSLRLSCAASGFIFDVNAMGWYRQAPGKERELVAAISRSGSSTYYADSVKGRFTISRDNAKNTVYFQMNSLKPEDTAVYYCAAEYYRNFYCSRGYWGQGTQVTVSS,high polyreactivity
5,QVQLVESGGGLVQAGGSLRLSCAASGSIFQYYLIGWYRKAPGKERELVAAIRRSGTTYYADSVKGRFTISRDNAKNTVYLQMNSLKPEDTAVYYCNKVRGQEQSNYDYWGQGTQVTVSS,low polyreactivity
6,QVQLVESGGGLVQAGGSLRLSCAASGRTLRYYAMGWYRQAPGKERELVATITGSGGSTYYADSVKGRFTISRDNAKNTVYLQMNSLKPEDTAVYYCNARKVRYPYRWYDYWGQGTQVTVSS,high polyreactivity
7,QVQLVESGGGLVQAGGRLRLSCAASGSTFYLNAMGWYRPAHGKERELVAAITRIGGSTYYADSVKGRFTISRDNAKNTVYLQMYSLTPEDTAVYYCAKDYGQARHDRYGYWGAGTQVTVSS,low polyreactivity
8,QVQLVESGGGLVQAGGSLRLSCAASGRTFYYNTMGWYRQAPGKERELVASITSGSSTYYADSVKGRFTISRDNAKNTVYLQMNSLKPEDTEVYYCAVYRRYSVKYHYGYWGQGTQVTVSS,high polyreactivity
9,QVQLVESGGGLVQAGGSLRLSCAASGFTFKRYAMGWYRQAPGKERELVAAISWSGGSTYYADSVKGRFTISRDNAKNTVYLQMNSLKPEDTAVYYCAADGGSTEEYYYWGQGTQVTVST,high polyreactivity
10,QVQLVESGGGLVQAGGSLRLSCAASGRIFASYAMGWYRQAPGKERELVAAISAGGGSRTYYADSVKGRFTISRDNAKNTVYLQMNSLKPEDTAVYYCNTANSWLRQYYYWGQGTQVTVSS,high polyreactivity
11,QVQLVESGGGLVQAGGSLRLSCAASGSIFYSNAMGWYRQAPGKERELVAAITWRGGSTYYADSVKGRFTISRDNAKYTVYLQLNSLKPEDTAVYYCNADGSARTPYYYRWYRYGYWGQGTQVTVSS,high polyreactivity
12,QVQLVESGGGLVQAGGSLRLSCAASGFIFDDNAMGWSRQAPGKDWELVAASTSGGGSTYYADSVKGRFTISRDNAKNTVYLQMTSLKPEDTAVYYCYAVPSQPDEFDYWGQGTQATVSS,low polyreactivity
13,QVQLVESGGGLVQAGGSLRLSCAASGNTIIRYAMGWYRQAPGKERELVAAISYSGGRTYYADSVKGRFTISRDNAKNTVYLQMNSLKPEDTAVYYCNAASRYGGDYWGQGTQVTVSS,low polyreactivity
14,QVQLVESGGGLVQAGGSLRISCAASGRTFLSYGMGWYRQAPGKERELVATIDDSGSTYYADSVKGRFTISRDNAKNTVYLQMNSLKPEDTAVYYCATDRQVFYWDFWYIEYDYGGQGTQVTVSS,high polyreactivity
15,QVQLQESGGLVQAGCLRLSCAASGSVSYHEAMGWYRQAPGKERELVATISFGANTNYADSVKGRFTISRDNAKNTVYLQMNSLKPEDTAVYYCAAESLFDDYYGYWGQGTQVTVSS,low polyreactivity
16,QVQLVESGGGLVPAGGSLRLSCAASGSIFGFYAMGWYRQSPGKERELVAGISYGDSSTYYADSVKGSFTISRDNAKNTVYLQMNSLKPEDTAVYYCAAGHRQKYNWGRYDYWGQGTQVTVSS,low polyreactivity
17,QVQLVESGGGLVQAGGSLRLSCAASGRIFYPYVMGWYRQAPGKERELVAAITGGGSTYYADSVKGRFTISRDNAKNTVYLQMNSLKPEDTAVYYCAKRSYGDRDERYDSWGQGTQVTVSS,low polyreactivity
18,QGQLVESGGGLVQAGGSLRLSCAASGYIFLTNAMGWSREAPGKERVLVAAISWRGGRTYYADSVKGRFTISRDNAKNTVYLQMNSLKPEDTAVYYCNAVCEYYGKSDYWGQGTQVTVSS,low polyreactivity
19,QVQLVESGGGLVQAGGSLRLSCAASGNIFAWYAMGGYRQAPGKERELVADISSRGGSTSYADSVKGRFTISRDNAKKTVYLQMNSLKPEDTAVYYCAASYYYPFEYYYWGQGTQVTVSS,low polyreactivity
20,QVQLVESGGGLVQAGGSLRLSCAASGITFQKYVMGWYRQAPGKEREFVAAITARGGTTYYADSVKGRFTISRDNAKNTVYLQMNSLKPEDTAVYYCAARSYYSGLAYYYWGQGTQVTVSS,high polyreactivity

# Source: the nanobody polyreactivity screen of Harvey et al. (2022)
